Experimental data published in patent US20100248978.

Biological target: T1, p-hydroxyphenylpyruvate dioxygenase (HPPD) (Arabidopsis thaliana) (UniProt P93836)
T1 sequence: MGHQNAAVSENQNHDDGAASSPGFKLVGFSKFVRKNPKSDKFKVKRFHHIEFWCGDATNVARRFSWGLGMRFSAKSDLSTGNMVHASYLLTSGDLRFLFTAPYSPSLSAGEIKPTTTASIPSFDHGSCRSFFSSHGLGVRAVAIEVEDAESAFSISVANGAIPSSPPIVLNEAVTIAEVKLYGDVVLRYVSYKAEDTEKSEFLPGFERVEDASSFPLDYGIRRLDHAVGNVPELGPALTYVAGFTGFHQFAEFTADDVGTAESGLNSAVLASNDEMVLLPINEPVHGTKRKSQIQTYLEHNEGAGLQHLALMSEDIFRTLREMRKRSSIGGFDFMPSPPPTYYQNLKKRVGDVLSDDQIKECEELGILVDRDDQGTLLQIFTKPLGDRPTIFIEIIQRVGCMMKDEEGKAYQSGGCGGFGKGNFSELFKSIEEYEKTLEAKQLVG
Assay: filter
Conditions: 500 nM HPPD, 10% DMSO

**Q.** Which binding signal (% RNA retained) does the source give for “GGGAGAGGAGGGAGAUAGAUAUCAANNNNNNNNNNNNNNNNNNNNNNNNNNNNNNNNNNNNNNNNNNNNNNNAGUUUGUCCUCACGGUGGAUGG [S115B enriched library (cycle 9)]” here?
**A.** 10
